Reference: US20250066503A1, “CELL INJURY INDUCING THERAPEUTIC DRUG FOR USE IN CANCER THERAPY” (CHUGAI SEIYAKU KABUSHIKI KAISHA, priority 2016, published 2025)
Several values for one entry are separate records, joined by “and”; a condition that tells them apart may be missing. Identical values can stand only once.

target: T1, human GPC3 (human, UniProt P51654 25-563); test: SPR
T1 construct: range 25-563; soluble analyte; also called soluble human GPC3; glypican 3
T1 sequence (P51654 25-563 limits assumed): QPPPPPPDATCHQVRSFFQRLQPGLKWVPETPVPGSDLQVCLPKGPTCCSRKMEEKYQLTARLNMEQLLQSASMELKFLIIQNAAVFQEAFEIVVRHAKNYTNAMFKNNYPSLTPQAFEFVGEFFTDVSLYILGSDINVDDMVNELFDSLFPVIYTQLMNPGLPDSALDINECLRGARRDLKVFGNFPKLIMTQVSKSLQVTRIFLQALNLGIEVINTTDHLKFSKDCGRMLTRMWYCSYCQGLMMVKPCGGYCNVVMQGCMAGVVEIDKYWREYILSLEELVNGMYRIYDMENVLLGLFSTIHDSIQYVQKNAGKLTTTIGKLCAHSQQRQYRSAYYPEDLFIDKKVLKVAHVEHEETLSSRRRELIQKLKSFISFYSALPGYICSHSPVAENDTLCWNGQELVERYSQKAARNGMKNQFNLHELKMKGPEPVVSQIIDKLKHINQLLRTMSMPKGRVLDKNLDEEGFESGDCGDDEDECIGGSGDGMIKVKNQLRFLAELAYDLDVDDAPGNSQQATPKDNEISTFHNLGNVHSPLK

Kd [nM] | Binder
1.31 | H0610-G1dh/none-Hi-Kn010G3/L0015-k0 (antibody, V domains shown, one-arm) VH: QVQLVQSGAEVKKPGASVKVSCKASGYTFTDYEMHWIRQPPGQGLEWIGAIDGKTPDTAYSQKFKGRVTLTADKSTSTAYMELSSLTSEDTAVYYCTRFYSYTYWGQGTLVTVSS VL: DIVMTQSPLSLPVTPGEPASISCRSSQSPVHSNRNTYLHWYQQKPGQAPRLLIYKVSNRFSGVPDRFSGSGSGTDFTLKISRVEAEDVGVYYCGQGTQVPYTFGQGTKLEIK
0.000525 | GCH054-G1dh/none-Hi-Kn010G3/L0262-k0 (antibody, V domains shown, one-arm) VH: QVQLVQSGAEVKKPGASVTVSCKASGYTFTDYEMHWIRQPPGEGLEWIGAIDGETPDTAYSEKFKGRVTLTADKSTSTAYMELSSLTSEDTAVYYCTRFYSYTYWGQGTLVTVSS VL: DIVMTQSPLSLPVTPGEPASISCRSSQPPVHSNRNTYLHWYQQKPGQAPRLLIYKVSNRFSGVPDRFSGSGSGTDFTLKISRVEAEDVGVYYCAQGTQVPYTFGQGTKLEIK
0.00361 | GCH054-G1dh/none-Hi-Kn010G3/L0249-k0 (antibody, V domains shown, one-arm) VH: QVQLVQSGAEVKKPGASVTVSCKASGYTFTDYEMHWIRQPPGEGLEWIGAIDGETPDTAYSEKFKGRVTLTADKSTSTAYMELSSLTSEDTAVYYCTRFYSYTYWGQGTLVTVSS VL: DIVMTQSPLSLPVTPGEPASISCRPSQSPVHSNRNTYIQWYQQKPGQAPRLLIYKVSNRFSGVPDRFSGSGSGTDFTLKISRVEAEDVGVYYCSQGTQVPYTFGQGTKLEIK
1.62 | GCH054-G1dh/none-Hi-Kn010G3/L0215-k0 (antibody, V domains shown, one-arm) VH: QVQLVQSGAEVKKPGASVTVSCKASGYTFTDYEMHWIRQPPGEGLEWIGAIDGETPDTAYSEKFKGRVTLTADKSTSTAYMELSSLTSEDTAVYYCTRFYSYTYWGQGTLVTVSS VL: DIVMTQSPLSLPVTPGEPASISCRSSQPPVHSNRNTYIHWYQQKPGQAPRLLIYKVSNRFSGVPDRFSGSGSGTDFTLKISRVEAEDVGVYYCGQGTQVPYTFGQGTKLEIK
1.18 | GCH054-G1dh/none-Hi-Kn010G3/L0200-k0 (antibody, V domains shown, one-arm) VH: QVQLVQSGAEVKKPGASVTVSCKASGYTFTDYEMHWIRQPPGEGLEWIGAIDGETPDTAYSEKFKGRVTLTADKSTSTAYMELSSLTSEDTAVYYCTRFYSYTYWGQGTLVTVSS VL: DIVMTQSPLSLPVTPGEPASISCRPSQSPVHSNRNTYLHWYQQKPGQAPRLLIYKVSNRFSGVPDRFSGSGSGTDFTLKISRVEAEDVGVYYCGQGTQVPYTFGQGTKLEIK
0.0315 | GCH054-G1dh/none-Hi-Kn010G3/L0246-k0 (antibody, V domains shown, one-arm) VH: QVQLVQSGAEVKKPGASVTVSCKASGYTFTDYEMHWIRQPPGEGLEWIGAIDGETPDTAYSEKFKGRVTLTADKSTSTAYMELSSLTSEDTAVYYCTRFYSYTYWGQGTLVTVSS VL: DIVMTQSPLSLPVTPGEPASISCRSSQSPVHSNRNTYIQWYQQKPGQAPRLLIYKVSNRFSGVPDRFSGSGSGTDFTLKISRVEAEDVGVYYCSQGTQVPYTFGQGTKLEIK

target: T2, soluble human CD3 epsilon chain (human, UniProt P07766 23-126); test: SPR
T2 construct: also called CD3ε
T2 sequence (P07766 23-126 limits assumed): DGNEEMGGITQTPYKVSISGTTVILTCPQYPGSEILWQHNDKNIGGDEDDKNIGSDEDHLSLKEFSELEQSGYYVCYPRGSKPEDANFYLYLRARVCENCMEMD

Binder | Kd
TR01H040-E22Hh/none-Hi-Kn010G3/TR01L007-k0 (antibody, V domains shown, one-arm) VH: QVQLVESGGGLVQPGRSLRLSCAASGFTFSNAWMHWVRQAPGKGLEWVAQIKDKSQNYATYYAESVKGRFTISRADSKNSIYLQMNSLKTEDTAVYYCRYVHYSASYGVDAWGQGTTVTVSS VL: DIVMTQSPLSLPVTPGEPASISCQASESLVHSNRNTYLHWYLQKPGQSPQLLIYKVSNRFSGVPDRFSGSGSGTDFTLKISRVEAEDVGVYYCGQGTQVPYTFGQGTKLEIK | 68.2 nM
TR01H084-E2702GsKsc/none-Hi-E2704sE/L0011-k0 (antibody, human IgG4 S228P, kappa, N297A, V domains shown, one-arm) VH: QVQLVESGGGVVQPGGSLRLSCAASGFTFSNAWMHWVRQAPGKGLEWVAQIKDKSQNYATYYAESVKGRFTISRADSKNSIYLQMNSLKTEDTAVYYCRYVHYAAGYGVDIWGQGTTVTVSS VL: DIVMTQSPLSLPVTPGEPASISCRSSQPLVHSNRNTYLHWYQQKPGQAPRLLIYKVSNRFSGVPDRFSGSGSGTDFTLKISRVEAEDVGVYYCGQGTQVPYTFGQGTKLEIKR | 4.14 nM
GPC3_ERY22_CE115 (rCE115H-E22Hh/rCE115L-k0/GL4-E22Hk/H0000-E22L) (bispecific antibody, human IgG1, kappa, L234A L235A, N297A, ERY22 format) heavy: EVQLVETGGSLVQPGKSLKLTCATSGFTFSNAWMHWVRQSPEKQLEWVAQIKAKSNNYATYYAESVKGRFTISRDDSKSNIYLQMNSLKEEDTAVYYCRYVHYGAYYGVDAWGQGTSVTVSSASTKGPSVFPLAPSSKSTSGGTAALGCLVKDYFPEPVTVSWNSGALTSGVHTFPAVLQSSGLYSLSSVVTVPSSSLGTQTYICNVNHKPSNTKVDKKVEPKSCDKTHTCPPCPAPEAAGGPSVFLFPPKPKDTLMISRTPEVTCVVVDVSHEDPEVKFNWYVDGVEVHNAKTKPREEQYASTYRVVSVLTVLHQDWLNGKEYKCKVSNKALPAPIEKTISKAKGQPREPQVYTLPPSRCELTKNQVSLSCAVKGFYPSDIAVEWESNGQPENNYKTTPPVLDSDGSFFLVSKLTVDKSRWQQGNVFSCSVMHEALHNHYTQKSLSLSPDYKDDDDK light: DVVMTQTPVSMSVSLGGQVSISCRSSQSLVHNNGNTYVSWYIQKPSQSPQLLIYKVSNRFSGISDRFSGSGSGTDFTLKISRVEPDDLGVYYCGQGTQDPYTFGAGTKLELKRTVAAPSVFIFPPSDEQLKSGTASVVCLLNNFYPREAKVQWKVDNALQSGNSQESVTEQDSKDSTYSLSSTLTLSKADYEKHKVYACEVTHQGLSSPVTKSFNRGEC chain 1: DIVMTQSPLSLPVTPGEPASISCRSSQSLVHSNRNTYLHWYQQKPGQAPRLLIYKVSNRFSGVPDRFSGSGSGTDFTLKISRVEAEDVGVYYCSQNTHVPPTFGQGTKLEIKSSASTKGPSVFPLAPSSKSTSGGTAALGCLVKDYFPEPVTVSWNSGALTSGVHTFPAVLQSSGLYSLSSVVTVPSSSLGTQTYICNVNHKPSNTKVDKKVEPKSCDKTHTCPPCPAPEAAGGPSVFLFPPKPKDTLMISRTPEVTCVVVDVSHEDPEVKFNWYVDGVEVHNAKTKPREEQYASTYRVVSVLTVLHQDWLNGKEYKCKVSNKALPAPIEKTISKAKGQPREPQVCTLPPSRDELTKNQVSLWCLVKGFYPSDIAVEWESNGQPENNYKTTPPVLDSDGSFFLYSKLTVDKSRWQQGNVFSCSVMHEALHNHYTQKSLSLSPHHHHHHHH chain 2: QVQLVQSGAEVKKPGASVKVSCKASGYTFTDYEMHWIRQPPGQGLEWIGAIDPKTGDTAYSQKFKGRVTLTADKSTSTAYMELSSLTSEDTAVYYCTRFYSYTYWGQGTLVTVSSASVAAPSVFIFPPSDEQLKSGTASVVCLLNNFYPREAKVQWKVDNALQSGNSQESVTEQDSKDSTYSLSSTLTLSKADYEKHKVYACEVTHQGLSSPVTKSFNRGEC | 93.7 nM

Other lines, results leading:

Kd | Binder
6.12 nM | TR01H077-E22Hh/none-Hi-Kn010G3/L0200-k0 (antibody, V domains shown, one-arm) VH: QVQLVESGGGLVQPGRSLRLSCAASGFTFSNAWMHWVRQAPGKGLEWVAQIKDKSNNYATYYAESVKGRFTISRADSKNSIYLQMNSLKTEDTAVYYCRYVHYAAAEMVRDDIWGQGTTVTVSS VL: DIVMTQSPLSLPVTPGEPASISCRPSQSPVHSNRNTYLHWYQQKPGQAPRLLIYKVSNRFSGVPDRFSGSGSGTDFTLKISRVEAEDVGVYYCGQGTQVPYTFGQGTKLEIK
3.2 nM | TR01H040-E22Hh/none-Hi-Kn010G3/TR01L019-k0 (antibody, V domains shown, one-arm) VH: QVQLVESGGGLVQPGRSLRLSCAASGFTFSNAWMHWVRQAPGKGLEWVAQIKDKSQNYATYYAESVKGRFTISRADSKNSIYLQMNSLKTEDTAVYYCRYVHYSASYGVDAWGQGTTVTVSS VL: DIVMTQSPLSLPVTPGEPASISCQASESPVHSNRNTYLHWYLQKPGQSPQLLIYKVSNRFSGVPDRFSGSGSGTDFTLKISRVEAEDVGVYYCYQGTQVPYTFGQGTKLEIK
12.1 nM | TR01H067-E22Hh/none-Hi-Kn010G3/TR01L019-k0 (antibody, V domains shown, one-arm) VH: QVQLVESGGGLVQPGRSLRLSCAASGFTFSNAWMHWVRQAPGKGLEWVAQIKDKSQNYATYYAESVKGRFTISRDDSKNSLYLQMNSLKTEDTAVYYCRYVHYAASYGVDAWGQGTTVTVSS VL: DIVMTQSPLSLPVTPGEPASISCQASESPVHSNRNTYLHWYLQKPGQSPQLLIYKVSNRFSGVPDRFSGSGSGTDFTLKISRVEAEDVGVYYCYQGTQVPYTFGQGTKLEIK
106 nM | TR01H082-E22Hh/none-Hi-Kn010G3/TR01L020-k0 (antibody, V domains shown, one-arm) VH: QVQLVESGGGLVQPGRSLRLSCAASGFTFSNAWMHWVRQAPGKGLEWVAQIKDKSQNYATYYAESVKGRFTISRDDSKNSLYLQMNSLKTEDTAVYYCRYVHYAAGYGVDAWGQGTTVTVSS VL: DIVMTQSPLSLPVTPGEPASISCQASESPVHSNRNTYIQWYLQKPGQSPQLLIYKVSNRFSGVPDRFSGSGSGTDFTLKISRVEAEDVGVYYCYQGTQVPYTFGQGTKLEIK
5.14 nM | TR01H113-E2702GsKsc/none-Hi-E2704sE/L0011-k0 (antibody, human IgG4 S228P, kappa, N297A, V domains shown, one-arm) VH: QVQLVESGGGVVQPGGSLRLSCAASGFTFSNAWMHWVRQAPGKGLEWVAQIKDKSQNYATYVAESVKGRFTISRADSKNSIYLQMNSLKTEDTAVYYCRYVHYAAGYGVDIWGQGTTVTVSS VL: DIVMTQSPLSLPVTPGEPASISCRSSQPLVHSNRNTYLHWYQQKPGQAPRLLIYKVSNRFSGVPDRFSGSGSGTDFTLKISRVEAEDVGVYYCGQGTQVPYTFGQGTKLEIKR
16.4 nM | TR01H109-E2702GsKsc/none-Hi-E2704sE/L0011-k0 (antibody, human IgG4 S228P, kappa, N297A, V domains shown, one-arm) VH: QVQLVESGGGLVQPGRSLRLSCAASGFTFSNAWMHWVRQAPGKGLEWVAQIKDKSQNYATYVAESVKGRFTISRDDSKNSLYLQMNSLKTEDTAVYYCRYVHYAAGYGVDAWGQGTTVTVSS VL: DIVMTQSPLSLPVTPGEPASISCRSSQPLVHSNRNTYLHWYQQKPGQAPRLLIYKVSNRFSGVPDRFSGSGSGTDFTLKISRVEAEDVGVYYCGQGTQVPYTFGQGTKLEIKR
10.1 nM | TR01H082-E2702GsKsc/none-Hi-E2704sE/L0011-k0 (antibody, human IgG4 S228P, kappa, N297A, V domains shown, one-arm) VH: QVQLVESGGGLVQPGRSLRLSCAASGFTFSNAWMHWVRQAPGKGLEWVAQIKDKSQNYATYYAESVKGRFTISRDDSKNSLYLQMNSLKTEDTAVYYCRYVHYAAGYGVDAWGQGTTVTVSS VL: DIVMTQSPLSLPVTPGEPASISCRSSQPLVHSNRNTYLHWYQQKPGQAPRLLIYKVSNRFSGVPDRFSGSGSGTDFTLKISRVEAEDVGVYYCGQGTQVPYTFGQGTKLEIKR
85.2 nM | rCE115H-E22Hh/none-Hi-Kn010G3/L0000vk1-k0 (antibody, human IgG1, L234A L235A, N297A, V domains shown, one-arm) VH: EVQLVETGGSLVQPGKSLKLTCATSGFTFSNAWMHWVRQSPEKQLEWVAQIKAKSNNYATYYAESVKGRFTISRDDSKSNIYLQMNSLKEEDTAVYYCRYVHYGAYYGVDAWGQGTSVTVSS VL: DIQMTQSPSSLSASVGDRVTITCRSSQSLVHSNRNTYLHWYQQKPGKAPKLLIYKVSNRFSGVPSRFSGSGSGTDFTFTISSLQPEDIATYYCGQGTQVPYTFGQGTKVEIK
124 nM and 138 nM | rCE115H-E22Hh/none-Hi-Kn010G3/rCE115L-k0 (antibody, human IgG1, kappa, L234A L235A, N297A, V domains shown, one-arm; also called rCE115H-E22Hh//-Hi-Kn010G3/rCE115L-k0) VH: EVQLVETGGSLVQPGKSLKLTCATSGFTFSNAWMHWVRQSPEKQLEWVAQIKAKSNNYATYYAESVKGRFTISRDDSKSNIYLQMNSLKEEDTAVYYCRYVHYGAYYGVDAWGQGTSVTVSS VL: DVVMTQTPVSMSVSLGGQVSISCRSSQSLVHNNGNTYVSWYIQKPSQSPQLLIYKVSNRFSGISDRFSGSGSGTDFTLKISRVEPDDLGVYYCGQGTQDPYTFGAGTKLELKR
